# B1: Gem-associated protein 2 (Homo sapiens), O14893 (parent)
# chain: MRRAELAGLKTMAWVPAESAVEELMPRLLPVEPCDLTEGFDPSVPPRTPQEYLRRVQIEAAQCPDVVVAQIDPKKLKRKQSVNISLSGCQPAPEGYSPTLQWQQQQVAQFSTVRQNVNKHRSHWKSQQLDSNVTMPKSEDEEGWKKFCLGEKLCADGAVGPATNESPGIDYVQIGFPPLLSIVSRMNQATVTSVLEYLSNWFGERDFTPELGRWLYALLACLEKPLLPEAHSLIRQLARRCSEVRLLVDSKDDERVPALNLLICLVSRYFDQRDLADEPS
# Variants of: B1
# Conditions: with smn_human SMN1, Q16637
# Chain of smn_human SMN1, Q16637 (Q16637 whole entry): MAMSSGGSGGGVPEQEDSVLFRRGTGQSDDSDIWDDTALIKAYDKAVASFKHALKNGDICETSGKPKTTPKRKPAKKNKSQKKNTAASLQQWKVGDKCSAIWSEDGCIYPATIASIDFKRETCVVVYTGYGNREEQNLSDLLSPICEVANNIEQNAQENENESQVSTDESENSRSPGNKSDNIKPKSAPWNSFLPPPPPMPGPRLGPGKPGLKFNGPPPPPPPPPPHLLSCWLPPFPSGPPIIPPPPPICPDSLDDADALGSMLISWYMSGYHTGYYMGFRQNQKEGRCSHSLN
row,Variant,effect of a mutation on the interaction
1,R213D,disrupting interaction

# From IntAct's records for PubMed 21816274
